Results reported in patent US20090111745A1.

Biological target: human serum albumin (human), P02768
Experiment: sandwich ELISA, HSA coated at 10 µg/ml, conjugate at 1 µM, detection with anti-FITC antibody

B1: DOM7h-8cys/FITC conjugate (protein)
VL: DIQMTQSPSSLSASVGDRVTITCRASQSISSYLNWYQQKPGKAPKLLIYRNSPLQSGVPSRFSGSGSGTDFTLTISSLQPEDFATYYCQQTYRVPPTFGQGTKVEIKC
modifications: not checked
- OD600: 0.38 OD600
